Results from patent publication US20200095324A1 (POTENZA THERAPEUTICS, published 2020).
Blank lines part the entries; values can stand above or below the binder they belong to.

Columns and labels:
human TIGIT [1] = target: T1, human TIGIT (human, UniProt Q495A1 22-141); assay: BLI (Octet), MAB10 captured on anti-human Fc sensors, monomeric wild type human TIGIT in solution
T1 construct: Expressed in HEK-293 cells and secreted as soluble protein; also called hTIGIT; monomeric wild type human TIGIT; not shown: His tag (purified on Ni-NTA, called 'human TIGIT HIS')
T1 sequence: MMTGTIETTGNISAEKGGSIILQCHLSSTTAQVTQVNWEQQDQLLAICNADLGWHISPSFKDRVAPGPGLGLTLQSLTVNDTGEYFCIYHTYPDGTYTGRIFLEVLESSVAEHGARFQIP
Procedure: (§1) To identify the epitope for MAB10 binding to human TIGIT, 18 alanine single point mutations were made. Proteins were expressed in HEK-293 cells, secreted as soluble protein, purified on Ni-NTA resin, and characterized by SDS-PAGE. Binding was assessed by Bio-Layer Interferometry (BLI) using the Octet platform. MAB10 was captured on anti-human Fc sensors, washed, and exposed to either monomeric wild type human TIGIT or to one of a selection of point mutants.

human TIGIT [2] = target: T1, human TIGIT; assay: complex formation, size exclusion chromatography and crystallisation
Procedure: The binding epitope of MAB10 was also identified through crystallographic studies. MAB10 Fab was complexed with human TIGIT, purified by size exclusion chromatography, and concentrated to 10 mg/ml. Crystals were grown out of 14% PEG4000, 0.1M MES pH 6, 10 mM β-nicotinamide adenine dinucleotide hydrate, 0.5% n-dodecyl-β-D-maltoside. X-ray data were collected at Argonne National Laboratories (GM/CA CAT 23ID-D) and processed using CCP4 (Collaborative Computational Project No. 4, Software for Macromolecular X-Ray Crystallography) and Phenix (Python-based Hierarchical ENvironment for Integrated Xtallography). TIGIT residues within a contact distance of 3.8 Å from the heavy and light chain were considered part of the binding epitope and include T55, Q56, L65, D72, L73, H76, I77, S78, P79 and H111.

human TIGIT [3] = target: T1, human TIGIT; assay: BLI (Octet), antibody captured on anti-human Fc sensors
Procedure: as §1
To identify the epitope for MAB2, MAB15, and MAB21 binding to human TIGIT, binding to 7 alanine single point mutations was assessed using BLI as described in the preceding paragraph.

B2: MAB10 Fab (Fab, V domains shown)
VH: QVQLQESGPGLVKPSQTLSLTCTVSGGSIESGLYYWGWIRQPPGKGLEWIGSIYYSGSTYYNPSLKSRATISVDTSKNQFSLKLSSVTAADTAVYYCARDGVLALNKRSFDIWGQGTMVTVSS
VL: EIVLTQSPGTLSLSPGERATLSCRASQSVSSSYLAWYQQKPGQAPRLLIYGASSRATGIPDRFSGSGSGTDFTLTISRLEPEDFAVYYCQQHTVRPPLTFGGGTKVEIK
notes: Fab of MAB10 used for crystallography
binding result (human TIGIT [2]): binds

B3: MAB21 (antibody, human IgG4 S228P, kappa, V domains shown)
VH: QVQLVQSGAEVKKPGASVKVSCKASGYTFTSHYMGWVRQAPGQGLEWMGIINPSMGATSYTQKFRGRVTMTRDTSTSTVYMELSSLRSEDTAVYYCARLHVSGSYYPAYLDYWGQGTMVTVSS
VL: EIVMTQSPATLSVSPGERATLSCRASQSVSSNLAWYQQKPGQAPRHLIYGASTRATGIPARFSGSGSGTEFTLTISSLQSEDFAVYYCQQYIVFPWTFGGGTKVEIKR
notes: also called MAB21-IgG4
binding result (human TIGIT [3]): binds

B4: MAB2 (antibody, human IgG4 S228P, kappa, V domains shown)
VH: QLQLQESGPGLVKPSETLSLTCTVSGGSISSSKYYWGWIRQPPGKGLEWIGSIYYSGSTFYNPSLKSRVTISVDTSKNQFSLKLSSVTAADTAVYYCARDANYYGSAWAFDPWGQGTLVTVSS
VL: EIVLTQSPATLSLSPGERATLSCRASQSVSSYLAWYQQKPGQAPRLLIYDASNRATGIPARFSGSGSGTDFTLTISSLEPEDFAVYYCQQHFNLPTFGGGTKVEIKR
notes: also called MAB2-IgG4
binding result (human TIGIT [3]): binds

The next lines start with the values.

binding result (human TIGIT [1]): binds
B1: MAB10 (antibody, human IgG4 S228P, kappa, V domains shown)
VH: B2 VH
VL: EIVLTQSPGTLSLSPGERATLSCRASQSVSSSYLAWYQQKPGQAPRLLIYGASSRATGIPDRFSGSGSGTDFTLTISRLEPEDFAVYYCQQHTVRPPLTFGGGTKVEIKR
notes: also called MAB10-IgG4; anti-TIGIT antibody MAB10

binding result (human TIGIT [3]): binds
B5: MAB15 (antibody, human IgG4 S228P, kappa, V domains shown)
VH: QVQLVQSGAEVKKPGASVKVSCKASGYTFREYYMHWVRQAPGQGLEWMGIINPSIGLTSYARKFQGRVTMTRDTSTSTVYMELSSLRSEDTAVYYCARGGRTTWIGAFDIWGQGTMVTVSS
VL: EIVMTQSPATLSVSPGERATLSCRASQSVSSNLAWYQQKPGQAPRLLIYGASTRATGIPARFSGSGSGTEFTLTISSLQSEDFAVYYCQQYVVWPPLTFGGGTKVEIKR
notes: also called MAB15-IgG4
